# B1: 4-MP01F04 (VHH)
# VHH: QVQLVESGGGLVQAGGSLRLSCAASGGTFRTRNMGWFRRAPGKEREFVAAVSWNVDNKLYADSVKGRFTISRDNGRNMVYLQMNSLKPEDTAVYYCAADNIPLSSDMRPTATEYDYWGQGTQVTVSS
# notes: periplasmic extract; also called FJ1427_P035MP01F04
# B2: FJ1427_P035MP05E04 (VHH)
# VHH: QVQLVESGGGLVQAGGSLRLSCAASGGTFRTRNMGWFRRAPGKEREFVAAVSWSVDNKLYAGSVKGRFTISRDNGRNMVYLQMNSLKPEDTAVYYCAADNIPLSSDMRPTATEFGYWGQGTRVTVSS
# notes: periplasmic extract; also called clone nr
# B3: 9-MP05G01 (VHH)
# VHH: EVQLVESGGGLVQAGGSLRLSCAASGGSIYTYNMGWFRQAPGKEREFVAGTLWSGGDSVYADFAKGRFTLSRENAKNTLYLQMNSLKPEDTATYYCAIDPLSLTSDWRVDELSSWGKGTLVTVSS
# notes: periplasmic extract; also called FJ1427_P035MP05G01
# B4: FJ1427_P035MP05A10 (VHH)
# VHH: QLQLVESGGGLVQAGGSLRLSCTASGLTFDGYAIGWFRQAPGKEREGVSYITGSDGSTYYIDSVKGRFTISSDIAKSTVYLQMNSLKPEDTAVYYCAVDRLGSRGLYASSWWRSGDMDLWGKGTLVTVSS
# notes: as for B2
# B5: 11-MP05H04 (VHH)
# VHH: QLQLVESGGGLVQAGGSLRLSCAASGLTFEGYAIGWFRQAPGKEREGVSYITGSDGTTYYINSVKGRFTISSDNAKSTVYLQMNTLKPEDTAVYYCAVDRLGSQGRYASAWWRSGDMDLWGKGTQVTVSS
# notes: periplasmic extract; also called FJ1427_P035MP05H04
# B6: FJ1427_P035MP05C11 (VHH)
# VHH: QVQLVESGGGLVQAGGSLRLSCTASGLTFEGYAIGWFRQAPGKEREGVSYITGSDASTYYIDSVKGRFTISSDFAKSTVYLQMNNLKPEDTAVYYCAVDRLGSRGGYASSWWRSGDMDLWGKGTLVTVSS
# notes: as for B2
# B7: FJ1427_P035MP05D10 (VHH)
# VHH: QVQLVESGGGLVQAGGSLRLSCTASGLTFDGYAIGWFRQAPGKEREGVSYITGSDGSTYYRDSVKGRFTISSDNAKSTVYLQMNTLKPEDTAVYYCAVDRLGSRGLYASSWWRSGDMDLWGKGTLVTVSS
# notes: periplasmic extract; also called clone nr; 460
# B8: FJ1427_P035MP05E10 (VHH)
# VHH: EVQLVESGGGLVQAGGSLRLSCTASGLTFDGYAIGWFRQAPGKEREGVSYITGSDGSTYYIDSVKGRFTISSDIAKSTVYLQMNSLKPEDTAVYYCAVDRLGSRGLYASSWWRSGDMDLWGKGTLVTVSS
# notes: as for B2
# B9: FJ1427_P035MP05G08 (VHH)
# VHH: QLQLVESGGGLVQAGGSLRLSCTASGLTFEGYAIGWFRQAPGKEREGVSYITGSDASTYYIDSVKGRFTISSDFAKSTVYLQMNNLKPEDTAVYYCAVDRLGSRGGYASSWWRSGDMDLWGKGTLVTVSS
# notes: as for B2
# B10: FJ1427_P035MP05H09 (VHH)
# VHH: QLQLVESGGDLVQPGGSLRLSCTASGLTFDGYAIGWFRQAPGKEREGVSYITGSNGSTYYIDSVKGRFTISSDIAKSTVYLQMNTLKPEDTAVYYCAVDRLGSRGLYASSWWRSGDMDLWGKGTLVTVSS
# notes: as for B2
# B11: FJ1427_P035MP05C09 (VHH)
# VHH: QLQLVESGGGLVQAGGSLRLSCAASGFTFDGYAIGWFRQAPGKEREGVSYITGSDGSTYYADSVKGRFTISSNNAKNTVYLHMNSLKPDDAAVYYCAIDRLGSRGAYVPIWWRSSDMDLWGKGTLVTVSS
# notes: as for B2
# B12: 12-MP05B12 (VHH)
# VHH: QVQLVESGGGLVQAGGSLRLSCAASGFTFDGYAIGWFRQAPGKEREGVSYITGSDGSTYYADSVKGRFTISSNNAKNTVYLHMNSLKPDDAAVYYCAIDRLGSRGAYVPIWWRSSDMDLWGKGTLVTVSS
# notes: periplasmic extract; also called FJ1427_P035MP05B12
# B13: FJ1427_P035MP05B08 (VHH)
# VHH: QLQLVESGGGLVQAGGSLRLSCVAHGLTFDGYAIGWFRQAPGKELEGVSYITGSDGSRYYADSVKGRFTISSDVAKNTVYLHMNNLKPDDAARYYCAVDRLGSRGAYVSAWWRSSDMDLWGKGTLVTVSS
# notes: as for B2
# B14: FJ1427_P035MP05C10 (VHH)
# VHH: QLQLVESGGGLVQTGGSLRLSCSTSGFTFDGYAIGWFRQAPGKEPEGVSYITGSDGSTYYADSVKGRFTISSDNAKNTVYLHMNSLKPDDAAVYYCAIDRLGSGGAYVPIWWRSSDMDLWGKGTLVTVSS
# notes: as for B2
# B15: FJ1427_P035MP01C11 (VHH)
# VHH: QVQLVESGGGLVQAGGSLRLSCAASGGTFRTRNMGWFRRAPGKEREFVAAVSWNVDNKLYAGSVKGRFTISRDNGRNMVYLQMNSLKPEDTAVYYCAADNIPLSSDMRPTATEYDYWGQGTQVTVSS
# notes: periplasmic extract; also called clone nr; 83
# B16: FJ1427_P035MP05A05 (VHH)
# VHH: QLQLVESGGGLVQAGGSLRLSCAASGLTFDGYAIGWFRQASGKEREGVSYINGRDGSTFYADSVKGRFIISSDNAKNTVDLQMNSLKPDDAAVYYCAVDRLGSRGAYVSTWWRPPDMDLWGKGTLVTVSP
# notes: periplasmic extract; also called clone nr; 417
# B17: FJ1427_P035MP05C06 (VHH)
# VHH: QVQLVESGGGLVQAGGSLRLSCAASGLTFDGYAIGWFRQASGKEREGVSYINGRDGSTFYTDSVKGRFIISSDNAKNTVDLQMNSLKPDDAAVYYCAVDRLGSRGAYVSSWWRSPDMDLWGKGTLVTVSS
# notes: as for B2
# B18: FJ1427_P035MP05D04 (VHH)
# VHH: QLQLVESGGGLVQAGGSLRLSCAASGLTFDGYAIGWFRQASGKEREGVSYINGRDGSTFYADSVKGRFIISSDNAKNTVDLQMNSLNPDDAAVYYCAVDRLGSRGAYVSSWWRSPDMDLWGKGTLVTVSS
# notes: as for B2
# B19: FJ1427_P035MP05H08 (VHH)
# VHH: QLQLVESGGGLVQAGGSLRLSCAASGLTFDGYAIGWFRQASGKEREGVSYINGRDGSTFYADSVKGRFIISSDNAKNTVDLQMNSLKPDDAAVYYCAVDRLGSRGAYVSTWWRSPDMDLWGKGTLVTVSS
# notes: as for B2
# B20: FJ1427_P035MP05B05 (VHH)
# VHH: EVQLVESGGGLVQAGGSLRLSCAASGFTFDGYAVGWFRQAPGKEPEGVSYITGSDGVTYYIDSVKGRFTISSDNAKRTVYLQMNTLKPEDTAVYYCAVDRLGSQGRYASSWWRAGDMDFWGKGTLVTVSS
# notes: as for B2
# Legend:
# human IL-2Rα [1] = biological target: T1, human IL-2Rα (human, UniProt P01589 22-240, limits assumed); test: SPR, P.E. on immobilised antigen
# T1 construct: recombinant protein; also called hu IL-2R; human IL-2Ra
# T1 sequence: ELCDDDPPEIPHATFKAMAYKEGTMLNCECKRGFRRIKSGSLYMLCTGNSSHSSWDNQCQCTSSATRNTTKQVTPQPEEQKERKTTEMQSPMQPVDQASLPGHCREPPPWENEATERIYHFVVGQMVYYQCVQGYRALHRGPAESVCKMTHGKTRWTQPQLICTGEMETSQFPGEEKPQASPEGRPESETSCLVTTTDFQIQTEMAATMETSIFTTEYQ
# Summary of the method: (§1)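 First, the IL-2R protein is immobilised via amine coupling in acetate buffer to roughly 2500 RU on a CM5 sensor chip. Next, the VHH extract is loaded at 30 uL/min. Finally, dissociation is recorded for 120s.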
# mouse IL-2Rα [2] = biological target: T2, mouse IL-2Rα (mouse, UniProt P01590 22-236, limits assumed); test: SPR, P.E. on immobilised antigen
# T2 construct: recombinant protein; also called mo IL-2R; mouse IL-2Ra
# T2 sequence (looked up): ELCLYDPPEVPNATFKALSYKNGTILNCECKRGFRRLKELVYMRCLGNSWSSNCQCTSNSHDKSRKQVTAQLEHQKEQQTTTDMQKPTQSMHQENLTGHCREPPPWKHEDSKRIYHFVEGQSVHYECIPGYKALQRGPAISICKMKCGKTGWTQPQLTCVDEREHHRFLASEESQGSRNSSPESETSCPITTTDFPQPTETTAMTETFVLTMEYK
# Summary of the method: as §1
# human IL-2Rα [3] = biological target: T1, human IL-2Rα; test: ELISA, P.E. on coated antigen
# Summary of the method: (§2)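 Human or mouse IL-2Rα, IL-2Rβ or IL-2Rγ protein coated directly overnight at 4° C, blocked with 4% Marvel/PBS for 1 hour.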
# mouse IL-2Rα [4] = biological target: T2, mouse IL-2Rα; test: ELISA, P.E. on coated antigen
# Summary of the method: as §2
Binder,koff (human IL-2Rα [1]) [s⁻¹],koff (mouse IL-2Rα [2]) [s⁻¹],OD (PE binding ELISA) (human IL-2Rα [3]) [OD450 nm],OD (PE binding ELISA) (mouse IL-2Rα [4]) [OD450 nm]
B1,0.000258,0.256,2.49,0.046
B2,0.00158,0.196,2.38,0.046
B3,0.000169,0.0442,2.35,0.047
B4,0.0012,0.00321,2.18,0.24
B5,0.0012,0.00163,2.22,0.163
B6,0.00044,0.000844,2.14,0.632
B7,0.00108,0.00284,2.09,0.107
B8,0.00169,0.00177,2.27,0.718
B9,0.000908,0.00258,2.39,0.38
B10,0.00105,0.00244,2.26,0.154
B11,0.00609,0.00435,0.366,0.059
B12,0.000222,0.000547,2.14,0.936
B13,0.00253,0.00608,1.88,0.057
B14,0.00406,0.00403,0.63,0.071
B15,0.000556,0.351,2.78,0.045
B16,0.00341,0.0172,1.86,0.052
B17,0.000659,0.00311,2.43,0.071
B18,0.00224,0.0122,1.91,0.045
B19,0.00278,0.0129,2.17,0.05
B20,0.00103,0.0114,2.15,0.045

# Source: US20240409645A1 (DUALYX, published 2024)
